Test results as given in patent publication US11230719B2, “Retroviral vector having immune-stimulating activity” (DENOVO BIOPHARMA LLC, priority 2014, dated 2022).

What was measured:
[1] = tested on: HA-L2g cells transduced with pBA9b-hIFNg-yCD2 vector; assay: MTS cell viability of HA-L2g cells transduced with pBA9b-hIFNg-yCD2; assay type: cell-based, human
Procedure: The concentration PALA required to kill HA-L2g cells transduced with pBA9b-hIFNg-yCD2 vector is determined. Cells are seeded at 1e3 cells in 96-well plates the day before. At 24 hour post cell seeding, PALA at 1, 10, 50 and 100 μM are added to the culture for 4 consecutive days followed MTS assay to determine the cell viability. […] A range of cytosine concentrations are also determined (0.2, 1, 5 10 mM) in culture by performing the same experiment described above.

[2] = tested on: IDO1; assay: IDO1 protein expression in glioma cell lines after IFNγ induction; assay type: cell-based, human; details: panel of glioma cell lines; level of induction varies
Excerpt: A panel of glioma cell lines were surveyed for their IDO1 expression after IFNγ induction. […] GAPDH (anti-human GAPDH at 1:500, Cell Signaling) detection was included as a loading control.

[3] = tested on: PDL1; assay: PD-L1 cell surface expression in cancer cell lines before and after IFNγ induction; assay type: cell-based, human; details: panel of cancer cell lines including glioma
Excerpt: Its expression can be further induced by IFNγ. A panel of cancer cell lines including glioma cell lines is surveyed for their PDL1 expression (anti-human PD-L1 antibody, eBioscience) before and after IFNγ induction.

[4] = tested on: TGFβ1, 2 and 3; assay: TGFβ1, 2 and 3 gene expression (Taqman) in cancer cell lines before and after IFNγ treatment; assay type: cell-based, human; details: panel of cancer cell lines including glioma
Excerpt: A panel of cancer cell lines including glioma cell lines were surveyed for their TGFβ1, 2 and 3 expression before and after IFNγ treatment using human TGF isoform-specific Taqman primers (Life Technology). […] Some expression more TGFβ1 and others express more TGFβ2. In all cases, TGFβ3 expression is low. In contrast to IDO1 and PDL1, TGFβ1, 2 and 3 expression is not induced by IFNγ.

[5] = tested on: HT1080; assay: hIFNg-induced MHC Class I upregulation in HT1080 cells (flow cytometry); assay type: cell-based, human; details: MFI
Procedure: (§1) To verify the bioactivity of recombinant hIFNg and mIFNg produced from the virus producer cell, upregulation of MHC Class I cell surface expression by flow cytometry was performed. Supernatant of known IFNg concentration were incubated with species-matched mouse colon carcinoma cell line, CT-26 or human fibrosarcoma cell line, HT1080. The degree of upregulation measured by mean fluorescent intensity (MFI) was compared to a standard which are purified recombinant protein expressed from E. coli. […] The recombinant hIFNg produced from the virus producer cells are 3-5 fold higher than that produced from E. coli (FIG. 2B). The difference is likely due to the differences in amino acid composition as well as glycosylation pattern.

[6] = tested on: CT-26; assay: mIFNg-induced MHC Class I upregulation in CT-26 cells (flow cytometry); assay type: cell-based, mouse; details: vs purified recombinant protein from E. coli
Procedure: as §1

[7] = tested on: CTLL-2; assay: IL-2 bioactivity, CTLL-2 proliferation (3H-thymidine incorporation); assay type: cell-based, mouse; details: produced by HA-L2 cells; vs recombinant IL-2 from E. coli
Procedure: CTLL-2 cell growth depends greatly on the presence of IL-2. The bioactivity of IL-2 is determined by the level of ^3H-thymidine incorporation into the DNA of proliferating cells. […] In addition, the level of CD expression from pBA9b-IFNg-yCD2 transduced HA-L2 cells is also detected by immunoblotting using an antibody against CD.

Nc1cc[nH]c(=O)n1 [cytosine]
cell viability with cytosine ([1]; 0.2, 1, 5, 10 mM): can tolerate cytosine in all concentrations tested

O=C(O)C[C@H](NC(=O)CP(=O)(O)O)C(=O)O [PALA, N-(phosphonacetyl)-L-aspartate]
cell viability with PALA ([1]; 1, 10, 50 and 100 μM, 4 consecutive days): sensitive to PALA at 10 μM and plateau at 50 μM

B1: IFNγ: interferon gamma used to induce IDO1 and PDL1 expression in cell lines (protein, UniProt P01579 24-161, looked up)
Interferon gamma: QDPYVKEAENLKKYFNAGHSDVADNGTLFLGILKNWKEESDRKIMQSQIVSFYFKLFKNFKDDQSIQKSVETIKEDMNVKFFNSNKKKRDDFEKLTNYSVTDLNVQRKAIHELIQVMAELSPAAKTGKRKRSQMLFRG
IDO1 expression after IFNγ induction [2]: upregulated
PDL1 expression further induced by IFNγ [3]: most of the cells lines, but not all, tested here are responsive
TGFβ1, 2 and 3 expression induced by IFNγ [4]: not induced

B2: recombinant hIFNg produced from the virus producer cells: human IFNg in supernatant of virus producer cells (protein, UniProt P01579 24-161, looked up)
Interferon gamma: B1 Interferon gamma
bioactivity higher than that produced from E. coli [5]: 3-5 fold

B3: recombinant mIFNg produced by the virus producer cells: mouse IFNg in supernatant of virus producer cells (protein, UniProt P01580 23-155, looked up)
Interferon gamma: HGTVIESLESLNNYFNSSGIDVEEKSLFLDIWRNWQKDGDMKILQSQIISFYLRLFEVLKDNQAISNNISVIESHLITTFFSNSKAKKDAFMSIAKFEVNNPQVQRQAFNELIRVVHQLLPESSLRKRKRSRC
bioactivity (MHC Class I upregulation, MFI) [6]: comparable to that of recombinant mIFNg produced by E. coli

B4: mIL-2: recombinant mouse IL-2 produced by the HA-L2 cells (protein, UniProt P04351 21-169, looked up)
Interleukin-2: APTSSSTSSSTAEAQQQQQQQQQQQQHLEQLLMDLQELLSRMENYRNLKLPRMLTFKFYLPKQATELKDLQCLEDELGPLRHVLDLTQSKSFQLEDAENFISNIRVTVVKLKGSDNTFECQFDDESATVVDFLRRWIAFCQSIISTSPQ
IL-2 bioactivity [7]: comparable
